Reference: paper doi:10.1101/2022.09.05.506711, “New structures of Class II Fructose-1,6-Bisphosphatase from Francisella tularensis suggest a novel catalytic mechanism for the entire Class” (bioRxiv, 2022)

Molecular target: the molecule itself
Assay: crystal structure

B1: Mycobacterium tuberculosis class II fructose-1,6-bisphosphatase (enzyme)
chain: MELVRVTEAGAMAAGRWVGRGDKEGGDGAAVDAMRELVNSVSMRGVVVIGEGEKDHAPMLYNGEEVGNGDGPECDFAVDPIDGTTLMSKGMTNAISVLAVADRGTMFDPSAVFYMNKIAVGPDAAHVLDITAPISENIRAVAKVKDLSVRDMTVCILDRPRHAQLIHDVRATGARIRLITDGDVAGAISACRPHSGTDLLAGIGGTPEGIIAAAAIRCMGGAIQAQLAPRDDAERRKALEAGYDLNQVLTTEDLVSGENVFFCATGVTDGDLLKGVRYYPGGCTTHSIVMRSKSGTVRMIEAYHRLSKLNEYSAIDFTGDSSAVYPLP
notes: also called MtFBPaseII; MtFBPase
stoichiometry N: 4
